B1: 6mer-1-1127 (peptide)
peptide: RKMMMK
B2: 6mer-1-1117 (peptide)
peptide: KKEWFR
B3: 6mer-1-1131 (peptide)
peptide: RKDNIK
B4: 6mer-1-1122 (peptide)
peptide: RRTMGR
B5: 6mer-1-1113 (peptide)
peptide: RRCTMK
B6: 6mer-1-1128 (peptide)
peptide: KKKKPK
B7: 6mer-1-1114 (peptide)
peptide: KKFNFK
B8: 6mer-1-1124 (peptide)
peptide: KKDEIR
B9: 6mer-1-1125 (peptide)
peptide: KKPTDR
B10: 6mer-1-1115 (peptide)
peptide: RKCAFR
B11: 6mer-1-1110 (peptide)
peptide: RKFTER
B12: 6mer-1-1107 (peptide)
peptide: KRCPPR
B13: 6mer-1-1120 (peptide)
peptide: RRKEAK
B14: 6mer-1-1109 (peptide)
peptide: KRCCVR
B15: 6mer-1-1123 (peptide)
peptide: RRDNVK
B16: 6mer-1-1130 (peptide)
peptide: RKATFR
B17: 6mer-1-1119 (peptide)
peptide: KRIWVR
B18: 6mer-1-1108 (peptide)
peptide: RRAHNK
B19: 6mer-1-1111 (peptide)
peptide: RRASPR
B20: 6mer-1-1112 (peptide)
peptide: KKDPWK
B21: 6mer-1-1126 (peptide)
peptide: RRHCDK
B22: 6mer-1-1129 (peptide)
peptide: RKDHAR
B23: 6mer-1-1118 (peptide)
peptide: KKDTIK
B24: 6mer-1-1121 (peptide)
peptide: KKTWWR
B25: 6mer-1-1116 (peptide)
peptide: KRHPFR
B26: 5mer-372 (peptide)
peptide: RSVCR
B27: 5mer-54 (peptide)
peptide: KWLQR
B28: 5mer-74 (peptide)
peptide: RQITK
B29: 5mer-69 (peptide)
peptide: RSRSR
B30: 5mer-59 (peptide)
peptide: KLQYR
B31: 5mer-371 (peptide)
peptide: RGISK
B32: 5mer-353 (peptide)
peptide: KSQLK
B33: 5mer-361 (peptide)
peptide: RSYQR
B34: 5mer-66 (peptide)
peptide: KRLLR
B35: 5mer-351 (peptide)
peptide: KSFSK
B36: 5mer-357 (peptide)
peptide: RGFRK
B37: 5mer-373 (peptide)
peptide: KVFTK
B38: 5mer-57 (peptide)
peptide: KQLYR
B39: 5mer-67 (peptide)
peptide: RQLYR
B40: 5mer-70 (peptide)
peptide: RLLQR
B41: 5mer-360 (peptide)
peptide: RQLCK
B42: 5mer-49 (peptide)
peptide: KWRTR
B43: 5mer-355 (peptide)
peptide: KLLYR
B44: 5mer-56 (peptide)
peptide: KRFCK
B45: 5mer-375 (peptide)
peptide: KQLCR
B46: 5mer-363 (peptide)
peptide: KRVRK
B47: 5mer-61 (peptide)
peptide: RLILK
B48: 5mer-352 (peptide)
peptide: RLVRK
B49: 5mer-359 (peptide)
peptide: KRFQK
B50: 5mer-65 (peptide)
peptide: RQIRR
B51: 5mer-350 (peptide)
peptide: KSYYK
B52: 5mer-50 (peptide)
peptide: KLLCR
B53: 5mer-356 (peptide)
peptide: KQVLR
B54: 5mer-58 (peptide)
peptide: KWVSK
B55: 5mer-55 (peptide)
peptide: RRFSR
B56: 5mer-368 (peptide)
peptide: KRIRR
B57: 5mer-52 (peptide)
peptide: RQQYK
B58: 5mer-369 (peptide)
peptide: RGFTR
B59: 5mer-60 (peptide)
peptide: RLFTK
B60: 5mer-68 (peptide)
peptide: RGFYK
B61: 5mer-75 (peptide)
peptide: KVQTK
B62: 5mer-367 (peptide)
peptide: RSVQK
B63: 5mer-374 (peptide)
peptide: KLFTR
B64: 5mer-358 (peptide)
peptide: KVRSK
B65: 5mer-71 (peptide)
peptide: KLQSK
B66: 5mer-364 (peptide)
peptide: RWITR
B67: 5mer-76 (peptide)
peptide: RGYRR
B68: 5mer-349 (peptide)
peptide: KQVYR
B69: 5mer-365 (peptide)
peptide: KRRYK
B70: 5mer-62 (peptide)
peptide: KQLTK
B71: 5mer-64 (peptide)
peptide: KVVTR
B72: 5mer-53 (peptide)
peptide: RLVTR
B73: 5mer-370 (peptide)
peptide: KWRRK
B74: 5mer-63 (peptide)
peptide: RLLRK
B75: 5mer-354 (peptide)
peptide: RSQTR
B76: 5mer-72 (peptide)
peptide: KLYRR
B77: 5mer-362 (peptide)
peptide: KQRLK
B78: 5mer-51 (peptide)
peptide: RSLQR
B79: 5mer-366 (peptide)
peptide: RQLQK

Each binder was assayed against acetylcholine receptor (assay: SPR, AchR immobilised, peptide 10 uM).
A Binding affinity (RU) of 34 RU was found for B1 in this work.
A Binding affinity (RU) of 40 RU was found for B2 in this work.
A Binding affinity (RU) of 42 RU was found for B3 in this work.
A Binding affinity (RU) of 33 RU was found for B4 in this work.
A Binding affinity (RU) of 28 RU was found for B5 in this work.
A Binding affinity (RU) of 39 RU was found for B6 in this work.
A Binding affinity (RU) of 38 RU was found for B7 in this work.
A Binding affinity (RU) of 21 RU was found for B8 in this work.
A Binding affinity (RU) of 26 RU was found for B9 in this work.
A Binding affinity (RU) of 43 RU was found for B10 in this work.
A Binding affinity (RU) of 24 RU was found for B11 in this work.
A Binding affinity (RU) of 36 RU was found for B12 in this work.
A Binding affinity (RU) of 22 RU was found for B13 in this work.
A Binding affinity (RU) of 41 RU was found for B14 in this work.
A Binding affinity (RU) of 41 RU was found for B15 in this work.
A Binding affinity (RU) of 31 RU was found for B16 in this work.
A Binding affinity (RU) of 31 RU was found for B17 in this work.
A Binding affinity (RU) of 43 RU was found for B18 in this work.
A Binding affinity (RU) of 38 RU was found for B19 in this work.
A Binding affinity (RU) of 27 RU was found for B20 in this work.
A Binding affinity (RU) of 41 RU was found for B21 in this work.
A Binding affinity (RU) of 39 RU was found for B22 in this work.
A Binding affinity (RU) of 33 RU was found for B23 in this work.
A Binding affinity (RU) of 28 RU was found for B24 in this work.
A Binding affinity (RU) of 35 RU was found for B25 in this work.

Each binder was assayed against acetylcholine receptor (assay: SPR, peptide at 10 µM on acetylcholine receptor).
A Binding affinity (RU) of 54 RU was found for B26 in this work.
A Binding affinity (RU) of 66 RU was found for B27 in this work.
A Binding affinity (RU) of 87 RU was found for B28 in this work.
A Binding affinity (RU) of 50 RU was found for B29 in this work.
A Binding affinity (RU) of 68 RU was found for B30 in this work.
A Binding affinity (RU) of 86 RU was found for B31 in this work.
A Binding affinity (RU) of 59 RU was found for B32 in this work.
A Binding affinity (RU) of 58 RU was found for B33 in this work.
A Binding affinity (RU) of 80 RU was found for B34 in this work.
A Binding affinity (RU) of 75 RU was found for B35 in this work.
A Binding affinity (RU) of 54 RU was found for B36 in this work.
A Binding affinity (RU) of 87 RU was found for B37 in this work.
A Binding affinity (RU) of 73 RU was found for B38 in this work.
A Binding affinity (RU) of 86 RU was found for B39 in this work.
A Binding affinity (RU) of 69 RU was found for B40 in this work.
A Binding affinity (RU) of 66 RU was found for B41 in this work.
A Binding affinity (RU) of 62 RU was found for B42 in this work.
A Binding affinity (RU) of 87 RU was found for B43 in this work.
A Binding affinity (RU) of 59 RU was found for B44 in this work.
A Binding affinity (RU) of 84 RU was found for B45 in this work.
A Binding affinity (RU) of 59 RU was found for B46 in this work.
A Binding affinity (RU) of 66 RU was found for B47 in this work.
A Binding affinity (RU) of 76 RU was found for B48 in this work.
A Binding affinity (RU) of 79 RU was found for B49 in this work.
A Binding affinity (RU) of 67 RU was found for B50 in this work.
A Binding affinity (RU) of 59 RU was found for B51 in this work.
A Binding affinity (RU) of 63 RU was found for B52 in this work.
A Binding affinity (RU) of 65 RU was found for B53 in this work.
A Binding affinity (RU) of 75 RU was found for B54 in this work.
A Binding affinity (RU) of 58 RU was found for B55 in this work.
A Binding affinity (RU) of 50 RU was found for B56 in this work.
A Binding affinity (RU) of 50 RU was found for B57 in this work.
A Binding affinity (RU) of 84 RU was found for B58 in this work.
A Binding affinity (RU) of 86 RU was found for B59 in this work.
A Binding affinity (RU) of 82 RU was found for B60 in this work.
A Binding affinity (RU) of 63 RU was found for B61 in this work.
A Binding affinity (RU) of 71 RU was found for B62 in this work.
A Binding affinity (RU) of 75 RU was found for B63 in this work.
A Binding affinity (RU) of 50 RU was found for B64 in this work.
A Binding affinity (RU) of 68 RU was found for B65 in this work.
A Binding affinity (RU) of 62 RU was found for B66 in this work.
A Binding affinity (RU) of 80 RU was found for B67 in this work.
A Binding affinity (RU) of 50 RU was found for B68 in this work.
A Binding affinity (RU) of 52 RU was found for B69 in this work.
A Binding affinity (RU) of 70 RU was found for B70 in this work.
A Binding affinity (RU) of 76 RU was found for B71 in this work.
A Binding affinity (RU) of 50 RU was found for B72 in this work.
A Binding affinity (RU) of 67 RU was found for B73 in this work.
A Binding affinity (RU) of 86 RU was found for B74 in this work.
A Binding affinity (RU) of 64 RU was found for B75 in this work.
A Binding affinity (RU) of 50 RU was found for B76 in this work.
A Binding affinity (RU) of 62 RU was found for B77 in this work.
A Binding affinity (RU) of 70 RU was found for B78 in this work.
A Binding affinity (RU) of 52 RU was found for B79 in this work.

Reference: patent publication US20250011363A1, “OPTIMIZED SHORTENED PEPTIDE THAT BINDS TO ACETYLCHOLINE RECEPTOR, AND USE THEREOF” (SKINMED CO., LTD., priority 2021, published 2025)
